Laboratory results: IntAct's records for PubMed 17229891

Target: 1433b_human YWHAB (UniProt P31946)
Chain of UniProt P31946 (P31946 whole entry): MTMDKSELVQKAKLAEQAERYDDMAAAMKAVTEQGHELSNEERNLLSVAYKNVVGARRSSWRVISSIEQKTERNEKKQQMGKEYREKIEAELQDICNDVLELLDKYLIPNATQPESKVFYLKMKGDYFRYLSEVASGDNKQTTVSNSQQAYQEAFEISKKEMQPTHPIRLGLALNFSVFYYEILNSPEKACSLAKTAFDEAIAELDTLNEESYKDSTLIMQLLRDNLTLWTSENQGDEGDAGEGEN

Dual specificity tyrosine-phosphorylation-regulated kinase 1A (Homo sapiens) (from UniProt Q13627-2) S520A
effect of a mutation on the interaction: decreasing interaction
